Measured values taken from publication PMC8875297.
Read-outs that look alike come from different tables or passages of the source.

With “cyclin D1: AMBRA1 depletion (siRNA, AMBRA1-/-, auxin-inducible degron)” the degradation_or_half_life (ubiquitination at K269) was “decreases”.
With cyclin D1: MLN4924 the degradation_or_half_life (ubiquitination at K269) was “decreases”.
With cyclin D1: T286A the degradation_or_half_life (phosphorylation at T286) was “decreases” and the other (phosphorylation at T286) was “abolishes”.
